From paper PMC4482361 (Organic & biomolecular chemistry, 2011)

T1: thymidine monophosphate kinase (TMK) (Escherichia coli, UniProt P0A720)
T1 sequence (P0A720 1-213): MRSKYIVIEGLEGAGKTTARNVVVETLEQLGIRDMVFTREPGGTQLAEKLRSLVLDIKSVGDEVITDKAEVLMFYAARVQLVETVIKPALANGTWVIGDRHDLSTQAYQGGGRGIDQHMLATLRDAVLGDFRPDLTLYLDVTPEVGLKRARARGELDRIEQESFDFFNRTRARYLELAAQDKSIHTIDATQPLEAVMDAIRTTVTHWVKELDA

B1: RavAMT (TDP-3-keto-6-deoxy-D-galactose-3-aminotransferase) (enzyme, Streptomyces ravidus, UniProt D1H0I5 1-369, looked up)
chain: MKVPYLDLKGPHTEIRAELDAAYHRVVDSGWFVLGEEVRAFEEEYAAYCGAAHCVSVATGCDALELALRALDIGPGDEVVVPSATYIATWLAVSETGADVVPVEVDPDTHLLDPAAVEAAVTPATRAVMPVHLYGQPADLPALRRVADRHGLALIDDAAQAHGARLNGTRVGGGGLATATAFSFYPGKNLGALGDGGGILTDDAELAERLRLLRNYGSRRKYHHELKSTNSRLDELHAAVLRAKLPHLDRWNARRAEIAERYRAAFADLPGLRPTAVPEGAEPSWHLYVVCCDDRDAVQRSLTDAGVGTLIHYPVPVHLSPAYADEKRWPAGAFPRAEAIAAQVLSLPMGPHLSDADVSYVIEAVRAAV
B2: RavIM (TDP-4-keto-6-deoxy-D-glucose-3,4-ketoisomerase) (enzyme, Streptomyces ravidus, UniProt D1H0I6 1-156, looked up)
chain: MTDTTAATGTTAGTDVSRVGKVRPCALMKLQTIGDPRGQLAVVEGAKDIGFPVKRLFYLYDLPTSSVRGDHAHRNLEQFVIPINGSFDVAVDDTVDTAVCRLDDPGQGLYIGPMVWNSLVNFSEGAIALVLASEHYDEADYYRRYDEFLADAGARP
B3: RavNMT (TDP-3-amino-3,6-dideoxy-D-galactose-N,N-dimethyltransferase) (enzyme, Streptomyces ravidus, UniProt D1H0I7 1-265, looked up)
chain: MSTLSVSQPGTPPTPADVEQAYGAEHADVYDAIYRGRGRDYAAEADAFLAVLRTRRPEITSLLDVACGTGAHLAALRGSVDHVEGVELSPWMHTLATRQLPGVAVHQDDMRSFNLSRRFSAVTCLFSSVGYLKSVEDLRRTLRTFRAHVAPGGVALVEPWWFPETFLDGYVGSSLVEVDGRTIARVSHTVRAGSTSRMTVEYTVAEPVNGVRRFSDLHVLSLFTREQYEDAFERAGFAVEFLKDGPSGRGLFLGVAPETTDGGPR

Key:
[1] = target: T1, thymidine monophosphate kinase (TMK); experiment: coupled assay with ACK, HPLC; assay type: biochemical; settings: phosphate donor; same
SEC = target: the molecule itself; experiment: SEC

Molecule | coupled assay with ACK, HPLC [1] | stoichiometry N (SEC)
Nc1ncnc2c1ncn2[C@@H]1O[C@H](COP(=O)(O)OP(=O)(O)OP(=O)(O)O)[C@@H](O)[C@H]1O [ATP] | ATP serves as a phosphate donor thereby converting into ADP | 
B1 |  | 2
B2 |  | 2
B3 |  | 2
